One assay relates to GhNINJA. As to the kind of experiment: Yeast two hybrid with GhNINJA. It is filed as binding, cotton. Here is the method: The study on Arabidopsis had shown that the inhibition of JAZ protein on JA signaling was mainly achieved by inhibiting the transcription factor function of MYC, which had been experimentally verified by us in cotton. Based on the phylogenetic tree of Arabidopsis and cotton JAZs, we screened 6 cotton JAZs (GhJAZ1, GhJAZ7, GhJAZ9, GhJAZ10, GhJAZ11 and GhJAZ31), which were analyzed with GhMYC2, GhNINJA, GhTPL, GhHDA6, and GhCOI1 for yeast two hybrid. The amino acid sequence of GhJAZ1 was set forth in SEQ ID No. 4, and the corresponding encoding gene sequence was set forth in SEQ ID No. 39; the amino acid sequence of GhJAZ7 was set forth in SEQ ID No. 7, and the corresponding encoding gene sequence was set forth in SEQ ID No. 42; the amino acid sequence of GhJAZ9 was set forth in SEQ ID No. 2, and the corresponding encoding gene sequence was set forth in SEQ ID No. 37; the amino acid sequence of GhJAZ10 was set forth in SEQ ID No. 3, and the corresponding encoding gene sequence was set forth in SEQ ID No. 38; the amino acid sequence of GhJAZ11 was set forth in SEQ ID No. 5, and the corresponding encoding gene sequence was set forth in SEQ ID No. 40; and the amino acid sequence of GhJAZ31 was set forth in SEQ ID No. 9, and the corresponding encoding gene sequence was set forth in SEQ ID No. 44. […]

Assay [1] has as its target T1, c-Myc (Homo sapiens, UniProt P01106). The experiment in a line: CO-IP with c-Myc in HEK293 cells. It is filed as binding. On the set-up: host or cells: HEK293 cells (method paragraph: 293T). How it is done: Steps of method of CO-IP experiment: Non-denaturing lysate was added to 293T cell culture plate (Pricella, Cat. No.: CL-0005), and the cells were completely lysed at 4° C. The lysate was centrifuged at 12,000 rpm for 10 min and the supernatant was collected. The corresponding antibody was added to the obtained non-denatured protein solution, which was incubated overnight at 4° C. Pierce™ protein A/G magnetic agarose (Thermo Fisher Scientific, Inc.) were washed with lysis buffer, followed by addition pre-treated beads to the cell lysate, and incubation at room temperature for 2 hours. The mixture was centrifuged at 4° C., 2,500 rpm for 5 min with supernatant removed, and the agarose beads were washed 5 times with 1 ml of lysis buffer. An appropriate amount of protein loading buffer was added to the pellet, and the sample was incubated in water bath at 100° C. for 10 min. The band of interest was detected by Western blotting.
Immunoprecipitation method (method of the experiment as Example 3) was used.

Assay [2] relates to breast cancer cells (MCF7). The experiment in a line: CCK8 cell viability detection, MCF7. The assay is classed as cell-based, human. Here is the method: (§1) CCK8 cell viability detection: cell suspension was seeded in 96-well plates at a concentration of 5×10^4 cells/ml (100 μL/well). The plates were placed in the incubator for pre-culture (at 37° C., 5% CO2), and control and protein agents were added to each well 24 h after seeding. The plates were then placed in the incubator for 24 h, followed by addition of 10 μL CCK8 solution into each well and incubation of the plates in the incubator for 0.5-2 h before the absorbance measurement at 450 nm using a microplate reader.
(§2) We constructed GhJAZ1 prokaryotic expression plasmid with His-tag to express proteins (see step 2 in Example 4), and then a GhJAZ1 protein, along with 6 His tags, which was approximately 30 KD in size was found by WB detection (A in FIG. 7). The purified GhJAZ1 protein was used to treat breast cancer cells (MCF7) and breast epithelial cells (MCF10A), and the cell viability was measured with CCK8.

Assay [3] concerns breast epithelial cells (MCF10A). The experiment in a line: CCK8 cell viability detection, MCF10A. The note with it: with the increase of GhJAZ1 protein concentration. It is filed as cell-based. How it is done:
as §1, §2

Assay [4] concerns the target T1, c-Myc. The experiment in a line: LUC experiment in tobacco leaves with c-Myc. Also on record: with the full length of c-Myc and NMYC, respectively; expressed in transfected cells; host or cells: yeast Y2HGold. It is filed as binding. The text has this: Using the method of LUC experiment, c-Myc (NCBI accession number: NM_002467.6) was subcloned to pCAMBIA NLuc vector (Chen, H., et al. “Firefly Luciferase Complementation Imaging Assay for Protein-Protein Interactions in Plants.” Plant Physiology 146.2(2008):368-376.) between the KpnI and SalI cleavage sites, and GhJAZ1 (SEQ ID No. 39) was subcloned to pCAMBIA-CLuc vector (Chen, H., et al. “Firefly Luciferase Complementation Imaging Assay for Protein-Protein Interactions in Plants.” Plant Physiology 146.2(2008):368-376.) between the KpnI and SalI cleavage sites. The constructed recombinant plasmids verified to be positive by sequencing were transformed into Agrobacterium GV3101 (pSoup-p19) (Shanghai Weidi biology technology co., Ltd, Cat. No.: AC1003), which were co-transfected into tobacco leaves. 2-3 days after injection, the infected leaves coated with the fluorescent substrate were placed in a dark chamber of the instrument for at least 6 min before taking images to quench fluorescence, followed by observation on the Nightowl-II LB983 instrument, using IndigoBasic software under the luciferase-5 min setting conditions. Cultivation was performed after co-infection. If there is interaction, LUC luciferase is expressed, and luminescence is detected after substrate application. As shown in F in FIG. 6, GhJAZ1 interacts with c-Myc.

“Also recorded” adds a separate entry of the source.

One may read the IC50 as the concentration needed to halve the response being measured.

T1 sequence (P01106 whole entry): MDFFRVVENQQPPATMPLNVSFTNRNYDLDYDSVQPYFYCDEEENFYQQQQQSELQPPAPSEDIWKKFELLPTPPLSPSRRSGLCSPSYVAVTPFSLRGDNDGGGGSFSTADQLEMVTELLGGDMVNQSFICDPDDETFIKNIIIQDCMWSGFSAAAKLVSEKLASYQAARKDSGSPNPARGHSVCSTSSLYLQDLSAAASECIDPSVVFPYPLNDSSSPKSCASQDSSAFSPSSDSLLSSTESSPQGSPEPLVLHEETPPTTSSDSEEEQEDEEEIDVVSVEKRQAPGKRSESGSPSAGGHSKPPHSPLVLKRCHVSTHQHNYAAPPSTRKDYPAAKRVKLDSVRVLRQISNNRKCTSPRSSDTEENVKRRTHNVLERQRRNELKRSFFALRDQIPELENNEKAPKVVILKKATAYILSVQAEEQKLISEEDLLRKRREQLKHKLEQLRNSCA
GhNINJA, sequence (as listed by the source): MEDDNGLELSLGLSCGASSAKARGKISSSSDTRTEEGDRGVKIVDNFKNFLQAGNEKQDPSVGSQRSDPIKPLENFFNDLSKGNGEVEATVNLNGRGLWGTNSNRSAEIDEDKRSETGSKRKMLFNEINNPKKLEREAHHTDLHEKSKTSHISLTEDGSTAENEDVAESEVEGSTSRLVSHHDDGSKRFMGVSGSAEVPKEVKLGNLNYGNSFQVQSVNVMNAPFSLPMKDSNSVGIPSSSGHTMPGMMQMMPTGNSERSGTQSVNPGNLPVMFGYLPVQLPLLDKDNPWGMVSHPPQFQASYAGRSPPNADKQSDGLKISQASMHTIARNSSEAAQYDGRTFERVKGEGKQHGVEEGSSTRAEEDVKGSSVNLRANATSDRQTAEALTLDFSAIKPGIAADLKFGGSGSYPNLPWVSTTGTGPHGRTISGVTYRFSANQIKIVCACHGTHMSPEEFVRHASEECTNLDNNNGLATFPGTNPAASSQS

B1: GhJAZ1: cotton JAZ1 protein, gene number Gh_A05G0260, sequence SEQ ID No. 4; prokaryotically expressed with His tag, about 30 KD (protein)
chain: MSSCSESTAMKPARSPEKPSFAQTCNLLSQYLKEKGSFGDLSLGMTCNVEANGTPVVPPPTMNLFPLNDKSDDVCGRNGGNPKNLTSMDLFPQQAGLASKDDSPNKLEPQTAPMTIFYGGQVIVFNDFPANKAKEIMLLASNSSSQSNNSFNPIPFTSSIARSPIESSIGVPPTSKPVHPAQRAVPGDLPIARRASLHRFLEKRKDRITAKAPYQINNSAAAPSLSGDNKSWLGLAAQSP
modifications: His tag
notes: prokaryotically expressed with His tag, about 30 KD
As to B1, the “interaction with GhNINJA” value in the assay on GhNINJA is “interacted”. Besides, the figures for the “interaction with c-Myc” value in the assay with c-Myc [1] and in the assay with c-Myc [4] were “interacted” and “interacts”, respectively. In addition, the IC50 in assay [2] (CCK8, 24 h treatment, read-out: IC50, inhibition of MCF7 cells) turned out to be 691 nM. Moreover, in assay [2] (with the increase of GhJAZ1 protein concentration), the “viability of MCF7 cells” value is “decreased significantly”. In assay [3], the “viability of MCF10A cells” value is “did not change significantly; also recorded: without inhibitory effect”.

The values are drawn from patent publication US20240279288A1, “APPLICATION OF PLANT JAZ PROTEINS AND DERIVED POLYPEPTIDES IN PREVENTION AND TREATMENT OF HUMAN AND ANIMAL TUMORS” (ANYANG INSTITUTE OF SINO-COTTON INDUSTRY INNOVATION, priority 2021, published 2024).
